Assay results: publication PMC4477659

Columns and labels:
Test in all cases: filter binding
Settings in all cases: Filter binding: 10 mM HEPES, 3 mM MgCl2, 1 mM DTT, 5% glycerol, 100 mM KCl, 0.05 mg/ml tRNA, 5 uM BSA, 30 C 15 min; UV crosslinking: 10 mM HEPES pH 7.9, 3 mM …
[1] = system: PTBP3 AUG11 isoform del1-103 (human), O95758-5
[2] = system: T1, PTBP3 AUG4 isoform del1-31 (human), O95758-5
T1 sequence: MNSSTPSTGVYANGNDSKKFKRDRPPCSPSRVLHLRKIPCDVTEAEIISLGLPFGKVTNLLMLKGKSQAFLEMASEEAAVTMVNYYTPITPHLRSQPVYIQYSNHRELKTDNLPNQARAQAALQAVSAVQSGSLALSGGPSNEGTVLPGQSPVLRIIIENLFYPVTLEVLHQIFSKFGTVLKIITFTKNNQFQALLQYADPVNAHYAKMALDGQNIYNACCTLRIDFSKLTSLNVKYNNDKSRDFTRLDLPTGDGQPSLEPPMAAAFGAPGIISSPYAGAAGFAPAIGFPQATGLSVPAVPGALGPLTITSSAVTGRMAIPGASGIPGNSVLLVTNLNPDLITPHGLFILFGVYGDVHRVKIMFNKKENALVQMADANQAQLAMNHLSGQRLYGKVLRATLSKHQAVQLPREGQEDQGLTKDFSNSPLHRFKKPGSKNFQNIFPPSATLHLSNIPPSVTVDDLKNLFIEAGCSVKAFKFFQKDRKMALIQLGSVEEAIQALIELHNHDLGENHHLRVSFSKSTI

[3] = system: PTBP3 ΔRRM1 (human), O95758-5

Substance | Kd [1] | Kd [2] | Kd [3]
CUCUCUCUCUCUCUCUCUCUCUCU [[CUCUCU]4] | 43.7 nM | 34.8 nM | 75.8 nM
EMCV IRES | 4.3 nM | 6.4 nM | 6.5 nM
MTDH exon 7 RNA | 63.2 nM | 91.5 nM | 91.1 nM
PV IRES | 23.4 nM | 44.1 nM | 23.6 nM
